# B1: TPR t1 (parent)
# chain: GACCAAUCUGCCCUCAGAGCUCGAGAACAUCUUCGGAUGCAGAGGAGGCAGGCUUCGGUGGCGCGAUAGCGCCAACGUCCUCAACCUCCAAUGCAUCCCACCACAUGAUGAUGCCUGAAGAGCCUUGGUUUUUUG
# Variants of: B1
# Assay: polymerase ribozyme fitness, log enrichment relative to wild type (log ratio); higher = more active; in vitro selection for triplet polymerase activity
# Summary of the method: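 Both subunits of a heterodimeric triplet polymerase ribozyme were given their own mutant library, built by PCR and transcribed. Each library was annealed with a biotinylated primer, the partner subunit and triplets, incubated frozen at −7 °C, and its extended constructs gel-excised, captured on streptavidin beads and amplified by RT-PCR, all in one round done in triplicate. Fitness is the logarithm of genotype enrichment relative to wild-type enrichment, with replicates averaged by inverse-variance weighting. That logarithm is base 2, and Illumina-sequenced genotypes needed ≥10 input reads and ≥1 read per output.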
row,Variant,polymerase ribozyme fitness (log ratio)
1,GACCAAUCUGCCCUCAGAGCUCGAGAACAUCUUCGGAUGGAGAGGAGGCAGGCUUCCGUGGCGCGAUAGCGCCAACGUUCUCAACCUCCAAUUCAUCCCACCACAUGAUGAUGCCUCAAGAGACUUGGUUUUUUG,-4.88
2,GACCAAUCUGCCCUCAGAGCUCGAGAACAUCUUCGGAUGCAGAGGAGGCAGGCUUCGGUAGCUCGAUAGCGCCAACGUCCUCAACCACCAAAGCAUCCCACAACAUGAUGAUGCGUGAAGAGCCUUGUUUUUUUG,-5.66
3,GACCAAUCUGCCCUCAGAGCUCGAGAACAUCGUCGGAUGCAGAGGAGGCAGGCUUCCGUGGCGCGAUAGCGCCAAUGUCCUGAAUCUCCAAUGCAUCCCACCACAUGAUGAUGGCUGAAGAGCCUUGGUUUUUUG,-7.16
4,GUCCAAUCUUCCCUCAGAGCUCGAGAACAUCUUCGGAUGCAAAGGAGGCAGGCUUCGGUGGCGCGAUAGCGCCAACGUCCUCAACCUUGAAGGCAUCCCACCACAUGAUGAUGCGUGAAGAGCCUUGGUUUUUUG,-6.18
5,GACCAAUCUGCCCUCAUAGCUCGAGAACAUCUUCGGAUGCAGAGGAGGCAGGCUUCGGUGGCGCGAUAGCGCCAACGCCCUCAACCUCCAAUGCAUCCCACCACAUGAUGAUGGCUGAAGAGCCUUGGUUUUUUG,-5.37
6,GACCAAUCUGCCCUCAGAGCUCGAGAACAUCUUCGGUUGCAGAGGAGGCUGGCUUCGGUGGCUCGAUAGCGCCAACGUCCUCAACCUCCAAUGCAUCCCACCACAUGAUGAUGCCUGAAUAGCCUAGGUAUUUUG,-5.22
7,GACCAAUCUGCCCUCAGAGCUCGAGAACAUCUUCGGAUGCAGAUGAGGCAGGCUUCGGUGGCCCGAUAGCGCCAACGUUCUCAACCUCCAAUGCAUCCCACCACAUGAUGAAGCCUGAAGAGCCUUGGUUUUUUG,0.269
8,GACCAAUCUGCCCUCAGAGCUCGAGACCAUCUUCGGAUGCAGAGGAGGCAGGCUCCGGUGGCGCGAUAGCGCCAACGUCCUCAACCUCCAAUGCAUCCCACCAUAUGAUGAUGCCUGAAGAGCCUUGGUUUUUUG,-3.54
9,GACCAAUCUGCCCUCAGAGCUCGAGAACAUCUUCGGAUGCAGAGGAGGCAGGCUUCGGUGGCGCGAUAGCGCCAACGUCCACAACCUCAAAUGCAUCCCACCACAUGAUGAUGCCUGAAGAGCCUUGGUUUUUUG,-2.06
10,GACCAAUCUGCACUCAGAGCUCGAGAACAUCUUCGGAUGCAGAGGAGGCAGGCUUCGGUGGAGCGAUAGCGCCAACGGCCUCAACCUCCAAUGCAUCCCACCACAUGAUGAUGCCUGAAGAGCCUUGGUUUUUUG,-2.28
11,GACCAAUCUGACCUCAGAGCUCGAGAACAUCUUCGGAUGCAGAGGAGGCAGACUUCGGUGGCGCGAUAGCGCCAACGUCCUCAACCUCCAAUGCAUCCCACCACAUGAUGAUGCCUGAAGAGCCUUGGUUUUUUG,-1.58
12,GACCAAUCUGCCUUCAGAGCUCGAGAACAUCUUCGGAUGCAGAGGAGGCAGGCUUUGGUGGCGCGAUAGCGCCAACGUCCUCAACCUCCAAUGCAUCCCACCACAUGAUGAUGCCUGAAGAGCGUUGGUUCUUUG,2.69
13,GACCAAUCUGCCCUCAGAGCUCGAGAACGUCUUCGGAUGCAGAGGAGGCAGUCUUCGGUGGCGCGAUAGUGCCAACGUCCUCAACCUCCAAUGCAUCCCACCACAUGAUGAUGCCUGAAGAGCCAUGGUUUUUUG,-2.42
14,GACCAAUCUGCCCUCAGAGCACGGGAACAUCUUCGUAUGCAGAGGAGGCAGGCUUCGGUGCCGCGAUAGCGCCAACGUCCUCAACCUCCAAUGCAUCCCACCACAUGAUGAUGCCUGAAUAGCCUUGGUUUAUUG,-3.58
15,GACCAAUCUGCCCUCAGAGUUCGAGAACAUCUUCGGAUGCAGAGGAGGCAGGCUUCGGUGGCGCGAUAGCGCCAACGUCCUCAACCUCCAAUGCAUCCCACAACAUGAUGAUGCCUGAAGAGCCUUGGUUUUUUG,-3.26
16,GACCAAUCUGCCCUCAGAGCUCGAGAACAUCUUCGGAUGCAGAGGAGGCAGGCUUCUGUGGCGCGAUAGCGCCUACGUUCUCAACCUCCAAUGCAUCCCACCACAUGAUGAUGCCUGAAGAGCCUUGGUUUUUUG,-0.181
17,GACCAAUCUGCCCUCAGAGCUCGAGAACAUCUUCGGAUGCAGAGGACGCAGCCUUCGGUGGCGCGAUAGCGCUAACGUCCUCAACCUCCAAUGCAUCCCACCACAUGAUGAUGCCUGAAUAGACUUGGUUUUUUG,-2.99
18,GACCAAACGGCCCUCAGAGCUCGAGAACAUCUUCGGAUGCAGAGGCGGCAGGCUUCGGUGGCGCGAUAGCGCCAACGUCCUCAAGCUCCAAUGCAUCCCACCACAUGAUGAUGCCUGAAGAGCCUUGGUUUUUUG,-1.96
19,GACCAAUCUGGCCUCAGAGCUCGAGAACAUCUUCGGAUGCAGAGGAGGCAGGCUUCGGUGGCGCGAUAGCGCCAACGUCCUCAACCUCCAAUGCAUCCCACCACAUGAUGAUGCCUGAAGAGCCUUGGUUGUUUG,-0.902
20,GACCAAUCUGCCCUCAGAGCUAGAGAACAUCUUCGGAUGCAGAGGAGGCAGACUUCGGUGGCGCGAUAGCGCCAACGUCCUCAACCUCCAAUGCAUCCCACCACAUGAUGAUGCCUGAAGAGCUUUGGUUUUUUG,-4.37
21,GACCAAUCUGCGCUCAGAGCUCGAGAACAUCUUCGGAUGCAGAGGAGGCAGGCUUCGGUGGCGCGAUAGCGCCAACGCCCUCAACCUCCAAUGCAUCCCACCACAUGAUGAUGCCUGAAGAGCCAUGGUUUUUUG,-0.607

# — the RNAGym collection of RNA variant scans (doi:10.1073/pnas.2313332121)
